Columns and labels:
Aβ1-42 peptide [1] = assay: cell-based or functional assay
Aβ1-42 peptide [2] = assay: cell-based or functional assay; remark: listed apart in the source

Row | Binder | Inhibition (%) of Aβ1-42 aggregation and fibril formation, ThT fluorescence, 44.30 µmol/L peptide with 11.07 µmol/L Aβ1-42, 37° C., 24 h (Aβ1-42 peptide [1]) [%] | T1/2, time point at which the ThT fluorescence intensity reaches the half-peak (Aβ1-42 peptide [2]) [h]
1 | HKQLVFFEED [H101] | 24.8 | –
2 | HQKLVFFAED [H103] | 14.9 | –
3 | HKQLPFFEED [H102] | 27.8 | 96
